Target: Gal80p (Saccharomyces cerevisiae) (UniProt P04387)
Assay: cell-based or functional assay

Sequence of UniProt P04387 (P04387 whole entry): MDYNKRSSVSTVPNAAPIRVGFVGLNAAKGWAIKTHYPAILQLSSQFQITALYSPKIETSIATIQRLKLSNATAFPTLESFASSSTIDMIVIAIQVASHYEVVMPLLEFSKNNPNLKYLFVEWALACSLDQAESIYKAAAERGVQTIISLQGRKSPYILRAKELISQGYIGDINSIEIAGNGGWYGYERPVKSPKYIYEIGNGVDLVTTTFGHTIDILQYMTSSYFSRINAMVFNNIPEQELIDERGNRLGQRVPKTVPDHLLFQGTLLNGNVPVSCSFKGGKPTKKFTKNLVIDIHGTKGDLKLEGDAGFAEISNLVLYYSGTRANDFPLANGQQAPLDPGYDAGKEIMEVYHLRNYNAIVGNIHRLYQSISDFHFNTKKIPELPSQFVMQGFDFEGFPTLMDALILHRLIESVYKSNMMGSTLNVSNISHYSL

## Gal3p^MC (metabolic coordinator) (from UniProt P13045 1-520)
  GAL1p-EGFP fluorescence during growth on galactose in strain SFS6: > 5 fold
